Reference: publication PMC9335266

Target: TRIM7^B30.2 (PRY-SPRY domain of human TRIM7, residues 338-511) (human) (UniProt Q9C029)
Test: ITC

2C peptide with F−2 replaced by a positively charged residue (R−2)
fold decrease in binding affinity against the 2C peptide: > 50 fold

2C peptide with F−2 replaced by polar serine (S−2)
fold decrease in binding affinity against the 2C peptide: > 50 fold

2C peptide with F−2 substituted by Ala
fold decrease in binding affinity against the 2C peptide: 8 fold

2C peptide with F−2 substituted by an acidic residue (D−2)
fold decrease in binding affinity against the 2C peptide: 8 to 15 fold
